Measured values published in patent US5821075.

Biological target: myelin basic protein, 32P-labeled on tyrosine residues

dephosphorylation (radioactivity released as inorganic phosphate, percentage of total input): > 30%
B1: PTPL1 protein tyrosine phosphatase (enzyme)
chain: MVQPEQAPKVLNVVVDPQGRGAPEIKATTATSVCPSPFKMKPIGLQERRGSNVSLTLDMSSLGNIEPFVSIPTPREKVAMEYLQSASRILDKVQLRDVVASSHLLQSEFMEIPMNFVDPKEIDIPRHGTKNRYKTILPNPLSRVCLRPKNVTDSLSTYINANYIRGYSGKEKAFIATQGPMINTVDDFWQMVWQEDSPVIVMITKLKEKNEKCVLYWPEKRGIYGKVEVLVISVNECDNYTIRNLVLKQGSHTQHVSNYWYTSWPDHKTPDSAQPLLQLMLDVEEDRLASQGPRAVVVHCSAGIGRTGCFIATSIGCQQLKEEGVVDALSIVCQLRMDRGGMVQTSEQYEFVHHALCLYESRLSAETVQ
